Series [1] concerns HeLa Kyoto. In words: solubility in G1/S (NP-40 vs SDS abundance) (log2 ratio); higher = more soluble. The following applies: cell cycle stage: G1/S.
In series [2] the test system is HeLa Kyoto. Description: melting temperature (median over replicates), in situ; higher = more thermally stable.
Series [3] deals with HeLa Kyoto. In words: solubility change mitosis vs G1/S (difference of NP-40 vs SDS log2 ratios) (log2 ratio difference); higher = more soluble in mitosis.
The test system of series [4] is HeLa Kyoto. Description: thermal stability score vs G1/S (z-score of summed log2 fold changes over temperatures); higher = more thermally stable than in G1/S.
The mark [5] stands for this setting: cell cycle stage: early G1 (4.5 h after nocodazole release).

The values that follow come from the supplement of paper PMC5998384.
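For melting temperature (median over replicates), in situ in this document: HeLa Kyoto cells synchronized by double thymidine or nocodazole block, proteins quantified by TMT10plex mass spectrometry, three independent biological replicates.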
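For solubility change mitosis vs G1/S (difference of NP-40 vs SDS log2 ratios) in this document: synchronized HeLa Kyoto cells (double thymidine block for G1/S, nocodazole release for mitosis), protein amounts in NP-40 versus SDS lysates quantified by mass spectrometry, three biological replicates.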
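For solubility in G1/S (NP-40 vs SDS abundance) in this document: HeLa Kyoto cells arrested at G1/S by double thymidine block, proteins quantified by TMT10plex mass spectrometry in mild NP-40 versus SDS extracts, three biological replicates.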
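For thermal stability score vs G1/S (z-score of summed log2 fold changes over temperatures) in this document: synchronized HeLa Kyoto cells, proteins quantified by TMT10plex mass spectrometry, three biological replicates, mitosis taken 0.5 h after nocodazole release, G1/S directly after double thymidine block.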

Turning to “MTQQPLRGVTSLRFNQDQSCFCCAMETGVRIYNVEPLMEKGHLDHEQVGSMGLVEMLHRSNLLALVGGGSSPKFSEISVLIWDDAREGKDSKEKLVLEFTFTKPVLSVRMRHDKIVIVLKNRIYVYSFPDNPRKLFEFDTRDNPKGLCDLCPSLEKQLLVFPGHKCGSLQLVDLASTKPGTSSAPFTINAHQSDIACVSLNQPGTVVASASQKGTLIRLFDTQSKEKLVELRRGTDPATLYCINFSHDSSFLCASSDKGTVHIFALKDTRLNRRSALARVGKVGPMIGQYVDSQWSLASFTVPAESACICAFGRNTSKNVNSVIAICVDGTFHKYVFTPDGNCNREAFDVYLDICDDDDF [WDR45]”, the “solubility in G1/S (log2)” value in the series with HeLa Kyoto [1] is -0.26. Besides, the melting temperature in the series with HeLa Kyoto [2] (cell cycle stage: G1/S) was 53.4 °C; in the series with HeLa Kyoto [2] (cell cycle stage: mitosis) it was 53.6 °C. In the series on HeLa Kyoto [3], the “solubility change mitosis (log2)” value is -0.0635. Further, the thermal stability score was -0.724 with HeLa Kyoto [4] (setting [5]) and -0.704 with HeLa Kyoto [4] (cell cycle stage: mitosis).
TENM3: the “solubility in G1/S (log2)” value in the series with HeLa Kyoto [1] amounted to 0.0433. Besides, the results for the melting temperature in the series on HeLa Kyoto [2] (cell cycle stage: G1/S) and in the series with HeLa Kyoto [2] (cell cycle stage: mitosis) were 54.9 °C and 55.6 °C, respectively. Moreover, the “solubility change mitosis (log2)” value with HeLa Kyoto [3] is -0.0942. Further, the thermal stability score was -2.98 with HeLa Kyoto [4] (setting [5]) and -2.29 with HeLa Kyoto [4] (cell cycle stage: mitosis).
Regarding “MVRTKTWTLKKHFVGYPTNSDFELKTAELPPLKNGEVLLEALFLTVDPYMRVAAKRLKEGDTMMGQQVAKVVESKNVALPKGTIVLASPGWTTHSISDGKDLEKLLTEWPDTIPLSLALGTVGMPGLTAYFGLLEICGVKGGETVMVNAAAGAVGSVVGQIAKLKGCKVVGAVGSDEKVAYLQKLGFDVVFNYKTVESLEETLKKASPDGYDCYFDNVGGEFSNTVIGQMKKFGRIAICGAISTYNRTGPLPPGPPPEIVIYQELRMEAFVVYRWQGDARQKALKDLLKWVLEGKIQYKEYIIEGFENMPAAFMGMLKGDNLGKTIVKA [PTGR1]”, the “solubility in G1/S (log2)” value in the series on HeLa Kyoto [1] turned out to be 0.248. In addition, the melting temperature with HeLa Kyoto [2] (cell cycle stage: G1/S) came out at 53.2 °C; in the series with HeLa Kyoto [2] (cell cycle stage: mitosis), 53.5 °C. The “solubility change mitosis (log2)” value in the series on HeLa Kyoto [3] was -0.225. Also, the thermal stability score is 0.13 in the series on HeLa Kyoto [4] (setting [5]) and -1.48 in the series on HeLa Kyoto [4] (cell cycle stage: mitosis).
In the case of “MNPSMKQKQEEIKENIKNSSVPRRTLKMIQPSASGSLVGRENELSAGLSKRKHRNDHLTSTTSSPGVIVPESSENKNLGGVTQESFDLMIKENPSSQYWKEVAEKRRKALYEALKENEKLHKEIEQKDNEIARLKKENKELAEVAEHVQYMAELIERLNGEPLDNFESLDNQEFDSEEETVEDSLVEDSEIGTCAEGTVSSSTDAKPCI [GMNN]”, the “solubility in G1/S (log2)” value with HeLa Kyoto [1] is 0.46. In addition, the melting temperature with HeLa Kyoto [2] (cell cycle stage: G1/S) turned out to be 57.5 °C; in the series on HeLa Kyoto [2] (cell cycle stage: mitosis), 52.7 °C. For the same substance, the “solubility change mitosis (log2)” value in the series with HeLa Kyoto [3] is -0.0263. The thermal stability score is -7.44 with HeLa Kyoto [4] (setting [5]) and -7.77 in the series on HeLa Kyoto [4] (cell cycle stage: mitosis).
Regarding “MQLTVKALQGRECSLQVPEDELVSTLKQLVSEKLNVPVRQQRLLFKGKALADGKRLSDYSIGPNSKLNLVVKPLEKVLLEEGEAQRLADSPPPQVWQLISKVLARHFSAADASRVLEQLQRDYERSLSRLTLDDIERLASRFLHPEVTETMEKGFSK [UBL4A]”, the “solubility in G1/S (log2)” value in the series on HeLa Kyoto [1] was 0.557. The melting temperature in the series with HeLa Kyoto [2] (cell cycle stage: G1/S) stood at 51.4 °C; in the series on HeLa Kyoto [2] (cell cycle stage: mitosis), 51.7 °C. In addition, the “solubility change mitosis (log2)” value in the series with HeLa Kyoto [3] was 0.277. The thermal stability score in the series with HeLa Kyoto [4] (setting [5]) was 0.0718; with HeLa Kyoto [4] (cell cycle stage: mitosis), 0.136.
In the case of “MANEAYPCPCDIGHRLEYGGLGREVQVEHIKAYVTKSPVDAGKAVIVIQDIFGWQLPNTRYIADMISGNGYTTIVPDFFVGQEPWDPSGDWSIFPEWLKTRNAQKIDREISAILKYLKQQCHAQKIGIVGFCWGGTAVHHLMMKYSEFRAGVSVYGIVKDSEDIYNLKNPTLFIFAENDVVIPLKDVSLLTQKLKEHCKVEYQIKTFSGQTHGFVHRKREDCSPADKPYIDEARRNLIEWLNKYM [CMBL]”, the “solubility in G1/S (log2)” value in the series on HeLa Kyoto [1] was determined as 0.267. Besides, the values for the melting temperature with HeLa Kyoto [2] (cell cycle stage: G1/S) and in the series with HeLa Kyoto [2] (cell cycle stage: mitosis) were 53.5 °C and 52.8 °C, respectively. Also, the “solubility change mitosis (log2)” value in the series with HeLa Kyoto [3] was -0.08. The values for the thermal stability score in the series with HeLa Kyoto [4] (setting [5]) and in the series on HeLa Kyoto [4] (cell cycle stage: mitosis) were -0.107 and -0.238, respectively.
